# Measured values published in FireProtDB (doi:10.1021/bi702473g).
# Where “and” joins values, the source holds several entries; their conditions need not be identical. Identical values can stand only once.
# B1: Azurin, P00282 (parent)
# chain: MLRKLAAVSLLSLLSAPLLAAECSVDIQGNDQMQFNTNAITVDKSCKQFTVNLSHPGNLPKNVMGHNWVLSTAADMQGVVTDGMASGLDKDYLKPDDSRVIAHTKLIGSGEKDSVTFDVSKLKEGEQYMFFCTFPGHSALMKGTLTLK
# Variants of: B1
# Settings: Pseudomonas aeruginosa (strain ATCC 15692 / DSM 22644 / CIP 104116 / JCM 14847 / LMG 12228 / 1C / PRS 101 / PAO1); pH 7.5; 20 °C; GdnHCl; Fluorescence; Tris 30 mM; reversible: Yes; structure 5AZU; whole UniProt chain shown
Variant,ddG of mutation (higher = less stable),denaturant m value,denaturant midpoint (higher = more stable),unfolding free energy
MLRKLAAVSLLSLLSAPLLAAECSVDIQGNDQMQFNTNAITVDKSCKQFTVNLSHPGNLPKNVMGHNWVLSTAADMQGVVTDGMASGLDKDYLKPDDSRVIAHTKLIGSGEKDSVTFDVSKLKEGEQYMFFSTFPGHSALMKGTLTLK [C132S],-1.57 kcal/mol and -2.09 kcal/mol and -0.96 kcal/mol,5.21 kcal/mol/M and 5.82 kcal/mol/M and 4.73 kcal/mol/M,2.09 M and 1.85 M and 2.17 M,10.9 kcal/mol and 11.4 kcal/mol and 10.3 kcal/mol

# Same assay, conditions: Pseudomonas aeruginosa (strain ATCC 15692 / DSM 22644 / CIP 104116 / JCM 14847 / LMG 12228 / 1C / PRS 101 / PAO1); pH 7.5; -15 °C; GdnHCl; Fluorescence; Tris 30 mM; NaCl 5.0 M; reversible: Yes; structure 5AZU; whole UniProt chain shown
Variant,denaturant m value,denaturant midpoint (higher = more stable),unfolding free energy
MLRKLAAVSLLSLLSAPLLAAECSVDIQGNDQMQFNTNAITVDKSCKQFTVNLSHPGNLPKNVMGHNWVLSTAADMQGVVTDGMASGLDKDYLKPDDSRVIAHTKLIGSGEKDSVTFDVSKLKEGEQYMFFSTFPGHSALMKGTLTLK [C132S],6.69 kcal/mol/M and 6.81 kcal/mol/M and 5.02 kcal/mol/M,1.35 M and 1.38 M and 1.4 M,9.05 kcal/mol and 9.4 kcal/mol and 7.01 kcal/mol
